In the MegaScale stability set (Tsuboyama et al. 2023):

B1: r4_43_TrROS_Hall (parent)
chain: DLVTIKVPLENLEEIKKAAEKAGFKIVSISYDKENKEVTIVIEKKK

Variants of: B1
Test: folding stability dG (cDNA display proteolysis); higher = more stable
Details: PBS, room temperature

Variant | folding stability dG [kcal/mol]
DLVTIKVPLENLEEIKKAAEKAGFKIVSISYDKENKEVTIVFEKKK [I42F] | 4.17
DLVTIKVPLECLEEIKKAAEKAGFKIVSISYDKENKEVTIVIEKKK [N11C] | 3
DLVTIKVPLENLEEIKKQAEKAGFKIVSISYDKENKEVTIVIEKKK [A18Q] | 3.62
DLVTIKVPLENLEEIKKGAEKAGFKIVSISYDKENKEVTIVIEKKK [A18G] | 3.34
DLVTIKVPLENLEEIKKRAEKAGFKIVSISYDKENKEVTIVIEKKK [A18R] | 3.72
DLVTIKVPLENLEEIKKKAEKAGFKIVSISYDKENKEVTIVIEKKK [A18K] | 3.86
DLVTIKVPLENLEEIKKAAEKDGFKIVSISYDKENKEVTIVIEKKK [A22D] | 3.13
DLVTIKVPLENLEEIKKAAEKNGFKIVSISYDKENKEVTIVIEKKK [A22N] | 3.54
DLVTIKVPLENLEEIKKAAEKAGFKFVSISYDKENKEVTIVIEKKK [I26F] | 3.31
DLVTIKVPLENLEEIKKAAEKAGFKIVSISYDKEPKEVTIVIEKKK [N35P] | 3.2
DLVTIKVPLENLEEIKKAAEKAGFKIVSISYDKENKRVTIVIEKKK [E37R] | 3.53
DLVTIKVPLENLEEIKKAAEKAGFKIVSISYDKENQEVTIVIEKKK [K36Q] | 3.48
DLVTIKVPLENLETIKKAAEKAGFKIVSISYDKENKEVTIVIEKKK [E14T] | 3.76
DLVTIKVPLENLEQIKKAAEKAGFKIVSISYDKENKEVTIVIEKKK [E14Q] | 3.56
DLVTIKVPLENLENIKKAAEKAGFKIVSISYDKENKEVTIVIEKKK [E14N] | 3.83
DLVTIKVPLENLEFIKKAAEKAGFKIVSISYDKENKEVTIVIEKKK [E14F] | 3.99
DLVTIKVPLENLEEIKKAAEKAGFKIVSISYDKRNKEVTIVIEKKK [E34R] | 3.84
DLVTIKVPLENLEEIKKAAEKAGFKIVSISYDKENKEVTIVIMKKK [E43M] | 4.04
DLVTIKVPLENLEEIKKAAEKAGFKIVSISYDKENKEVTIVISKKK [E43S] | 3.51

Variant | folding stability dG [kcal/mol]
DLVTIKVPLENLEEIKKAAEKAGFKIVSISYDKENKEVTIVIIKKK [E43I] | 3.54
DLVTIKVPLENLEEIKKAAEKAGFKIVSISYDKENKEVTIVIQKKK [E43Q] | 3.64
DLVTIKVPLENLEEIKKAAEKAGFKIVSKSYDKENKEVTIVIEKKK [I29K] | 2.44
DLVTIKVPLENLEEIKKAAEKAGFKIVSQSYDKENKEVTIVIEKKK [I29Q] | 3.28
DLVTIKVPLENLEEIKKAAEKAGFKIVSNSYDKENKEVTIVIEKKK [I29N] | 1.97
DLVTIKVPLENLEEIKKAAEKAGFKIVKISYDKENKEVTIVIEKKK [S28K] | 3.52
DLVTIKVPLENLEEIKKAAEKAGFKIVDISYDKENKEVTIVIEKKK [S28D] | 3.02
DLVTIKVPLENLEEIKKAAEKAGFKIVEISYDKENKEVTIVIEKKK [S28E] | 3.18
DLSTIKVPLENLEEIKKAAEKAGFKIVSISYDKENKEVTIVIEKKK [V3S] | 3.62
DLRTIKVPLENLEEIKKAAEKAGFKIVSISYDKENKEVTIVIEKKK [V3R] | 3.4
DLVTIKVNLENLEEIKKAAEKAGFKIVSISYDKENKEVTIVIEKKK [P8N] | 3.58
DLVLIKVPLENLEEIKKAAEKAGFKIVSISYDKENKEVTIVIEKKK [T4L] | 3.46
DLVDIKVPLENLEEIKKAAEKAGFKIVSISYDKENKEVTIVIEKKK [T4D] | 2.98
DLVPIKVPLENLEEIKKAAEKAGFKIVSISYDKENKEVTIVIEKKK [T4P] | 3.02
DLVTIKVPLENLEEIKKAAEKAGFKIVSISYDKENKEVTIVIEKKH [K46H] | 4.17
DLVTIKVPLENLEEIKKAAEKAGFKIVSISYDKENKEVTIVIEAKK [K44A] | 3.79
DLVTIKVPLENLEEIKKAAEKAGFKIVSISYDKENKEVTIVIEWKK [K44W] | 4.25
DLVTIKNPLENLEEIKKAAEKAGFKIVSISYDKENKEVTIVIEKKK [V7N] | 2.53
DLVTIKVPLENLEEIKKAAEKAGFKIVSISYDAENKEVTIVIEKKK [K33A] | 3.49

Variant | folding stability dG [kcal/mol]
DLVTIKVPLENLEEIKKAAEFAGFKIVSISYDKENKEVTIVIEKKK [K21F] | 4.43
DLVTIKVPLENLEEIKKAAERAGFKIVSISYDKENKEVTIVIEKKK [K21R] | 4.07
DLVTIKVPLENLEEIKKAAEKAGRKIVSISYDKENKEVTIVIEKKK [F24R] | 2.77
PLVTIKVPLENLEEIKKAAEKAGFKIVSISYDKENKEVTIVIEKKK [D1P] | 3.56
DLVTIKVPLENLEEIKKAAEKAGFKILSISYDKENKEVTIVIEKKK [V27L] | 3.51
DLVTIKVPLENLEEIKKAAEKAGFKIYSISYDKENKEVTIVIEKKK [V27Y] | 4.35
DLVTIKVPLENLEEIKKAAEKAGFMIVSISYDKENKEVTIVIEKKK [K25M] | 3.63
DLVTIKVPLENLEEIKKAAEKAGFKIVSISYDKENKEVCIVIEKKK [T39C] | 3.2
DLVTYKVPLENLEEIKKAAEKAGFKIVSISYDKENKEVTIVIEKKK [I5Y] | 4.42
DLVTIKVPLENLEEIKKAAEKAGFKIVSISYDKENKEVTIVIEKAK [K45A] | 3.92
DLVTIKVPLENLHEIKKAAEKAGFKIVSISYDKENKEVTIVIEKKK [E13H] | 3.55
DLVTIKVPLENLEEIKKAAEKAGFKIVSISYDKENKEITIVIEKKK [V38I] | 3.66
DLVTIKVPLENLEEIKKAAEKAGFKIVSISYDKENKEETIVIEKKK [V38E] | 0.699
DLVTIKVPLENLEESKKAAEKAGFKIVSISYDKENKEVTIVIEKKK [I15S] | 3.41
DLVTIKVPLENLEEIKKAAEKAGFKIVSISGDKENKEVTIVIEKKK [Y31G] | 2.76
DLVTIKVPLENLEEIFKAAEKAGFKIVSISYDKENKEVTIVIEKKK [K16F] | 3.62
DLVTIKVPLENLEEIKKAAEKAGFKIVSIYYDKENKEVTIVIEKKK [S30Y] | 3.83
DLVTIKVPLENLEEIKKAAEKAGFKIVSIEYDKENKEVTIVIEKKK [S30E] | 3.4
